Source: PMC8635156, “Structural and Functional Analysis of SsaV Cytoplasmic Domain and Variable Linker States in the Context of the InvA-SsaV Chimeric Protein” (Microbiology Spectrum, 2021)

B1: SsaV cytoplasmic domain (SsaVC), residues 346-682 (domain or fragment)
chain: MVPGACPLILRLSPTLHSADLIRDIDAMRWFLFEDTGVPLPEVNIEVLPEPTEKLTVLLYQEPVFSLSIPAQADYLLIGADASVVGDSQTLPNGMGQICWLTKDMAHKAQGFGLDVFAGSQRISALLKCVLLRHMGEFIGVQETRYLMNAMEKNYSELVKELQRQLPINKIAETLQRLVSERVSIRDLRLIFGTLIDWAPREKDVLMLTEYVRIALRRHILRRLNPEGKPLPILRIGEGIENLVRESIRQTAMGTYTALSSRHKTQILQLIEQALKQSAKLFIVTSVDTRRFLRKITEATLFDVPILSWQELGEESLIQVVESIDLSEEELADNEE
notes: SsaV (SctV of the SPI-2 T3SS), Salmonella enterica serovar Typhimurium, residues 346-682 (cytoplasmic domain with the last residues of the linker); The His6 tag is thrombin-cleavable (pET15b); the purification as described names no cleavage step; also called SctVC of SPI-2; source: E. coli BL21, purified (Ni-NTA, Hitrap Q anion exchange, SEC)
B2: InvATM-SsaVL-SsaVC chimeric full-length protein (ISS) (other)
chain: MLLSLLNSARLRPELLILVLMVMIISMFVIPLPTYLVDFLIALNIVLAILVFMGSFYIDRILSFSTFPAVLLITTLFRLALSISTSRLILIEADAGEIIATFGQFVIGDSLAVGFVVFSIVTVVQFIVITKGSERVAEVAARFSLDGMPGKQMSIDADLKAGIIDADAARERRSVLERESQLYGSFDGAMKFIKGDAIAGIIIIFVNFIGGISVGMTRHGMDLSSALSTYTMLTIGDGLVAQIPALLIAISAGFIVTRVNGDSDNMGRNIMTQLLNNPFVLVVTAILTISMGTLPGFPLPVFVILSVVLSVLFYFIRRKKSVVSANGVEAPEKDSMVPGACPLILRLSPTLHSADLIRDIDAMRWFLFEDTGVPLPEVNIEVLPEPTEKLTVLLYQEPVFSLSIPAQADYLLIGADASVVGDSQTLPNGMGQICWLTKDMAHKAQGFGLDVFAGSQRISALLKCVLLRHMGEFIGVQETRYLMNAMEKNYSELVKELQRQLPINKIAETLQRLVSERVSIRDLRLIFGTLIDWAPREKDVLMLTEYVRIALRRHILRRLNPEGKPLPILRIGEGIENLVRESIRQTAMGTYTALSSRHKTQILQLIEQALKQSAKLFIVTSVDTRRFLRKITEATLFDVPILSWQELGEESLIQVVESIDLSEEELADNEE
notes: InvA, Salmonella enterica serovar Typhimurium, transmembrane region: what is left when residues 316-685 are replaced (residues 1-315); SsaV, Salmonella enterica serovar Typhimurium, residues 326-682 (linker SsaVL and cytoplasmic domain SsaVC); Eluted from the Strep-Tactin beads after the SUMO tag was cleaved on the beads; also called InvATM-SsaVC chimera; chimeric ISS; source: E. coli BL21, …

What was measured:
[1] = target: the molecule itself; assay: SEC; gel filtration of purified cytoplasmic domains (Superdex 200 Increase 10/300 GL; 20 mM Tris-HCl pH 8.0, 150 mM NaCl); Fig. 1B at two salt concentrations (physiological and high salt); Fig. 4D wild type and variants
[2] = target: the molecule itself; assay: cryo-EM structure; single particle analysis of the GDN-solubilised chimera ISS (~10 mg/ml); C9 symmetry, 2.11 Å for the SsaVC part; TM and linker regions hardly visible

Protein | stoichiometry N [1] | stoichiometry N [2]
B1 | 9 | 
B2 |  | 9
